Results on one molecule are retold here after PMC11145553, “SORL1 is a receptor for tau that promotes tau seeding” (The Journal of Biological Chemistry, 2024).

What all share (details): both partners purified
Assay [1] addresses T1, Phosphorylated 2N4R tau produced in SF9 cells (human, UniProt P10636-8 1-441, phosphorylated (hyperphosphorylated forms; intermediate tau phosphorylation state); sites not given).
T1 construct: also called 2N4R SF9; SF9 tau; source: SF9 cells (baculovirus), purified (boiled lysate, HisTrap)
Put plainly: SPR; SORL1 VPS10 domain amine-coupled to a CM5 chip; tau in single cycle titrations (3.8-310 nM); 0.15 M NaCl, 0.05% Tween 20, 1 mM CaCl2 pH 7.4; equilibrium analysis (Req from a pseudo-first-order fit).

The target of assay [2] is T2, Recombinant human 2N4R tau (full-length tau), WT (human, UniProt P10636-8 1-441).
T2 construct: the His tag applies only to the in-house protein; The uptake assays used 125I-labeled R&D SP-495; also called monomeric tau; microtubule-associated protein tau; source: His-tagged, E. coli, purified, or bought: R&D Systems (SP-495)
T2 sequence (P10636 other isoform, or with tags, fused parts or gaps): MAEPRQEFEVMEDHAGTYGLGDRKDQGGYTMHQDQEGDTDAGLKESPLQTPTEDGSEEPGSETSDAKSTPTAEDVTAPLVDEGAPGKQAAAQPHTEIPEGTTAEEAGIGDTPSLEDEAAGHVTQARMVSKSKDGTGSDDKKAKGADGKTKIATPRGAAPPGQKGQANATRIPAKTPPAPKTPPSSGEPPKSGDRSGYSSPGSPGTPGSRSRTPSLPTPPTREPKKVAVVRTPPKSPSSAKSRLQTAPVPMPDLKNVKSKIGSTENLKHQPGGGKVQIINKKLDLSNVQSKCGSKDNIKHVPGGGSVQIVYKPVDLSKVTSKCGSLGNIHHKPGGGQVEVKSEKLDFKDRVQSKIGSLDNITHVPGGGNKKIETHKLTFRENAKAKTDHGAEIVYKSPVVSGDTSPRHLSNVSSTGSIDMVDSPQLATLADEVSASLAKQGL
Nature of the assay: SPR; SORL1 VPS10 domain amine-coupled to a CM5 chip; tau in single cycle titrations (3.8-310 nM); 0.15 M NaCl, 0.05% Tween 20, 1 mM CaCl2 pH 7.4; kinetic analysis, 1:1 fit, KD calculated from the kinetic parameters.

For assay [3], the target named is T1, Phosphorylated 2N4R tau produced in SF9 …. Described as above.

T1 sequence (P10636 other isoform, or with tags, fused parts or gaps): as above

B1: Recombinant human SORL1 VPS10 domain, aa 82 to 753 (domain or fragment, UniProt Q92673 82-753, looked up)
chain: SAALQPEPIKVYGQVSLNDSHNQMVVHWAGEKSNVIVALARDSLALARPKSSDVYVSYDYGKSFKKISDKLNFGLGNRSEAVIAQFYHSPADNKRYIFADAYAQYLWITFDFCNTLQGFSIPFRAADLLLHSKASNLLLGFDRSHPNKQLWKSDDFGQTWIMIQEHVKSFSWGIDPYDKPNTIYIERHEPSGYSTVFRSTDFFQSRENQEVILEEVRDFQLRDKYMFATKVVHLLGSEQQSSVQLWVSFGRKPMRAAQFVTRHPINEYYIADASEDQVFVCVSHSNNRTNLYISEAEGLKFSLSLENVLYYSPGGAGSDTLVRYFANEPFADFHRVEGLQGVYIATLINGSMNEENMRSVITFDKGGTWEFLQAPAFTGYGEKINCELSQGCSLHLAQRLSQLLNLQLRRMPILSKESAPGLIIATGSVGKNLASKTNVYISSSAGARWREALPGPHYYTWGDHGGIITAIAQGMETNELKYSTNEGETWKTFIFSEKPVFVYGLLTEPGEKSTVFTIFGSNKENVHSWLILQVNATDALGVPCTENDYKLWSPSDERGNECLLGHKTVFKRRTPHATCFNGEDFDRPVVVSNCSCTREDYECDFGFKMSEDLSLEVCVPDPEFSGKSYSPPVPCPVGSTYRRTRGYRKISGDTCSGGDVEARLEGELVPCP
notes: VPS10 domain of sortilin-related receptor 1 (SORL1), human, residues 82-753; also called vacuolar protein sorting 10 domain of SORL1; VPS10 peptide; source: bought: R&D Systems (9880-LA)
In the case of B1, the equilibrium dissociation constant (Kd) (in general, the free concentration of one partner at which half of the binding sites on the other are occupied at equilibrium, for simple one-to-one binding) in assay [1] was found to be 95 nM. In assay [2], the Kd was 15 nM; the koff (as a rule, a measure of how fast the partners let go of each other) is 0.41 s⁻¹; the kon (as a rule, the second-order rate constant of association) was 5e+07 M⁻¹ s⁻¹. In assay [3], the Kd was 78 nM, the koff was 0.0061 s⁻¹ and the kon is 85000 M⁻¹ s⁻¹.
